Earlier results in article PMC12017986.
Like-named read-outs stand apart in the source and are kept apart here.

Assays:
[1] = biological target: Dynein intermediate chain (IC) (Drosophila melanogaster) (UniProt Q24246)
[2] = biological target: Dynein intermediate chain (IC) (Drosophila melanogaster) (UniProt Q24246); remark: listed apart in the source
[3] = biological target: Swallow (Drosophila melanogaster) (UniProt P40688)
UniProt P40688, sequence (P40688 whole entry): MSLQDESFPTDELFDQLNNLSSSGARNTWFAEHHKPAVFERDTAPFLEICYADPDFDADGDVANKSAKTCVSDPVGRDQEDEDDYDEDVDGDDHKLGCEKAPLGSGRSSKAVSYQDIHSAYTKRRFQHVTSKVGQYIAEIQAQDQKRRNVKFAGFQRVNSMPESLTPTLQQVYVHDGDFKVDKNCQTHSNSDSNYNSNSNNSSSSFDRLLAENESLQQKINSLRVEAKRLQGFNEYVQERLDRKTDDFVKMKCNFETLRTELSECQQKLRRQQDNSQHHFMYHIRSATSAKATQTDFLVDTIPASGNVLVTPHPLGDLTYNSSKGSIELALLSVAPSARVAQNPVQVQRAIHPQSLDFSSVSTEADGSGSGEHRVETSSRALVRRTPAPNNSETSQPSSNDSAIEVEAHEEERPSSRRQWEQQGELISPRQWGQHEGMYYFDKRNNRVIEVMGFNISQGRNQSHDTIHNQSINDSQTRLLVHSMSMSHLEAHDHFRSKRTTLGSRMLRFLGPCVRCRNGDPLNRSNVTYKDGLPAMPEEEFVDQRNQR

UniProt Q24246, sequence (Q24246 whole entry): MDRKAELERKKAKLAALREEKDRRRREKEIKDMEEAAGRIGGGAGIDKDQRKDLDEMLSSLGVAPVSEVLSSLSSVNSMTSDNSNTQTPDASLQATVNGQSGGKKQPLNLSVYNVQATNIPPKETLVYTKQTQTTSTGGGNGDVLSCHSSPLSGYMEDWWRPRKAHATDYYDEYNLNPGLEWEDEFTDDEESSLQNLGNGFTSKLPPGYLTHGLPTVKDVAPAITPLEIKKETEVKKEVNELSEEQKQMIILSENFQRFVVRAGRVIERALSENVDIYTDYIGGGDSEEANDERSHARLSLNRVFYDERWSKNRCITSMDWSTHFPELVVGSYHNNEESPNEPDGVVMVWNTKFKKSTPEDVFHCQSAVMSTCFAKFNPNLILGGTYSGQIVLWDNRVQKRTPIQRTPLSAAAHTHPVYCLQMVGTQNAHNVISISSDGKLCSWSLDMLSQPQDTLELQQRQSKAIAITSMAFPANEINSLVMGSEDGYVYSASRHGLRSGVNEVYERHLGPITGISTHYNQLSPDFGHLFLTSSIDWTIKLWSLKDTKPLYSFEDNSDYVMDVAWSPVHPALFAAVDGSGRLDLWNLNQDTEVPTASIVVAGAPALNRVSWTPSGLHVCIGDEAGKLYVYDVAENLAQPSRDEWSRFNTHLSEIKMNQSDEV

Kd [1]: 130 nM | Kd [2]: 8000 nM | Kd [3]: 200 nM
Substance: LC8 (from UniProt Q24117)
